According to patent US20170340698A1, “CYCLIC PEPTIDE SPECIFICALLY BINDING TO APOPTOTIC CELLS AND USE THEREOF” (KYUNGPOOK NATIONAL UNIVERSITY INDUSTRY-ACADEMIC COOPERATION …, priority 2014, published 2017):

System: SNU16 human stomach cancer cell line
Experiment: In vitro binding of FITC-conjugated peptides to apoptotic cells, flow cytometry
Assay type: cell-based
Conditions: fluorescent probe
Protocol: SNU16 human stomach cancer cell line was purchased from KCLB (Seoul, Korea). […] After treatment, cells were incubated with fluorescein isothiocyanate (FITC)-conjugated linear or cyclic form of ApoPep-1 peptide at 4[…] for 1 hour. As control, cells were stained with Alexa488-conjugated annexin V (Life technologies, Carlsbad, Calif.) for 15 min at room temperature. Percentages of fluorescent (the liner or cyclic form of ApoPep-1 peptide-bound or annexin V-bound fluorescence) cells were calculated by measurement and analysis methods through the selection of the fluorescent signals (the liner or cyclic form of ApoPep-1 peptide-bound or annexin V-bound fluorescence), which were shown in the respective cells when cells in an emulsion state pass through a constant fluorescence detection zone, using flow cytometry (Fluorescence-activated cell sorting (FACS), FACS calibur, BD Biosciences, MA, USA).
Cyclic form of ApoPep-1 (cyclo[CQRPPRC] peptide of the present invention) was prepared by adding cysteine residue at the carboxy terminal of linear form of ApoPep-1 (CQRPPR) and performing cyclization through disulfide bonding.

B1: annexin V: existing apoptotic probe used as control, Alexa488-conjugated (Life technologies) (protein, UniProt P08758 2-320, looked up)
Annexin A5: AQVLRGTVTDFPGFDERADAETLRKAMKGLGTDEESILTLLTSRSNAQRQEISAAFKTLFGRDLLDDLKSELTGKFEKLIVALMKPSRLYDAYELKHALKGAGTNEKVLTEIIASRTPEELRAIKQVYEEEYGSSLEDDVVGDTSGYYQRMLVVLLQANRDPDAGIDEAQVEQDAQALFQAGELKWGTDEEKFITIFGTRSVSHLRKVFDKYMTISGFQIEETIDRETSGNLEQLLLAVVKSIRSIPAYLAETLYYAMKGAGTDDHTLIRVMVSRSEIDLFNIRKEFRKNFATSLYSMIKGDTSGDYKKALLLLCGEDD
modifications: Alexa488 conjugate
- percentage of apoptotic cells detected (SNU16 cells treated with cetuximab alone (200 ug/ml) for 24 hours): ~40%
- percentage of apoptotic cells detected (SNU16 cells treated with cisplatin (300 ng/ml) plus cetuximab in combination for 24 hours): ~45%
- percentage of apoptotic cells detected (SNU16 cells treated with cisplatin alone (300 ng/ml) for 24 hours): approximately 43%
